We go through ten molecules from US20130216547A1 (Regeneron, published 2013).

Substitutions are numbered along the chain they refer to. In names and notes the source's numbering stands.

The labels stand for the following.
B1: H2M6486N (antibody, V domains shown)
VH: EVQLVESGGGLVKPGGSLRLSCAASGFTFSSYNMNWVRQAPGKGLEWVSSISSSSSYIYYADSVKGRFTISRDNAKNSLYLQMNSLRAEDTAVYYCARDNWNYSFDYWGQGTLVTVSS
VL: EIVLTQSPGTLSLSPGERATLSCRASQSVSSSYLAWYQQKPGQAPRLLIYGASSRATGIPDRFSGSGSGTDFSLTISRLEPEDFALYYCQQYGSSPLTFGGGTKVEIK
notes: Hybridoma antibody, human variable domains, mouse IgG2 Fc (prefix H2M)
B2: H2M6490N (antibody, V domains shown)
VH: EVQLLESGGGLVQPGGSLRLSCAASGFTFSSYAMTWVRQAPGKGLECISAISGSGYSTYYADSMKGRFSISRDNSKNTLYLQMNRLRAEDTAVYYCTKGGRILEWLLPFDFWGQGTLVTVSS
VL: DVVMTQSPLSLPVTLGQPASISCRSSQSLVYSDGNTYLIWFQQRPGQSPRRLIYKVSNRDSGVPDRFSGSGSGTDFTLIISRVEAEDVGLYYCMQGTHWPPTFGGGTKVEIK
notes: as for B1
B3: H1M6492N (antibody, V domains shown)
VH: EVQLVESGGGLVKPGGSLRVSCVASGFTFSNAWMTWVRQTPGKGLECVGRIKSRTDGGTVDYVAPVKGRFTISRDDSKNTLYLQMNSLKAEDTAVYYCRADLDYWGQGTLVTVSS
VL: DVVMTQSPLSLPVSLGQPASISCRSSQSLVHSDGITYLNWFQQRPGQSPRRLIYKISNRDSGVPDRFSGSGSGTDFTLKFSRVEAEDVGVYFCMQGTHWPYTFGQGTKLEIK
notes: Hybridoma antibody, human variable domains, mouse constant domains; prefix H1M marks the Fc region (isotype not spelled out)
B4: H1M6494N (antibody, V domains shown)
VH: B3 VH
VL: B3 VL
notes: as for B3
B5: H2M6495N (antibody, V domains shown)
VH: QVQLVESGGGVVQPGRSLRLSCAASGFTFRSYGMHWVRQAPGKGLEWVAVIWYDGSDKYYADSVKGRFTISRDNSKNTLYLQMNSLRAEDTAVYFCAKDEYKTRGGYFDYWGQGTLVTVSS
VL: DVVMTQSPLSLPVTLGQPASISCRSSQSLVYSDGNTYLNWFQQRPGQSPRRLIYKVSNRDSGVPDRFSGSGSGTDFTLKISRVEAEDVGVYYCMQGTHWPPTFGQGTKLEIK
notes: as for B1
B6: H4H6495N (antibody, V domains shown)
VH: B5 VH
VL: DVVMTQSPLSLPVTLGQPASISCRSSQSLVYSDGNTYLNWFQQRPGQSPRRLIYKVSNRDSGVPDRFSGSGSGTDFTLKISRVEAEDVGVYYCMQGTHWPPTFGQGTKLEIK
notes: Human IgG4 Fc version of 6495N; also called 6495N (human IgG4 format)
B7: H4H6353P (antibody, V domains shown)
VH: EVQLVESGGGLVKPGGSLRLSCAASGFSFNYAWMSWVRQAPGKGLEWIGRIKSKINGGTTDYTAPVKGRFTISRDDSKNTLYLQMNSLKTEDTAVYYCRGDEDFWGQGTLVTVSS
VL: B2 VL with N35F, I39N, Q42R, I79R, L90I, P101Y, G105Q, V109L
notes: Human IgG4 Fc (prefix H4H)
B8: H4H6334P (antibody, V domains shown)
VH: EVQLVESGGGLVKPGGSLRLSCAVSGFTFSIDWMIWVRQAPGTGLEWVGRIKRKTDGGTTDYAAPVKGRFTISRDDSKNTLYLQMNSLKTEDTAIYYCATGGFERVGQGTLVTVSS
VL: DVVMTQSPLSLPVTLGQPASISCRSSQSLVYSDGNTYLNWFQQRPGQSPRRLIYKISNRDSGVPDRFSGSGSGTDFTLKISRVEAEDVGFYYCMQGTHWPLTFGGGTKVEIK
notes: Human IgG4 Fc (prefix H4H)
B9: H4H6347P (antibody, V domains shown)
VH: EVQLVESGGGLVQPGGSLRLSCAASGFTFSNYAMSWVRQAPGKGLEWVSAISGSGVGTYYAASVKGRFTISRDNSKNTLYLQMNSLRAEDTAVYYCPKARTGTHAFDIWGQGTMVTVSS
VL: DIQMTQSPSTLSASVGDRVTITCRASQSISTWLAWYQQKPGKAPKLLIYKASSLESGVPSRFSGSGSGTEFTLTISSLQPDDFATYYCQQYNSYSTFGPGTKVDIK
notes: Human IgG4 Fc (prefix H4H)
B10: H4H6328P (antibody, V domains shown)
VH: B5 VH with R30S, F95Y, K98R, E100G, K102G, T103S, G106N
VL: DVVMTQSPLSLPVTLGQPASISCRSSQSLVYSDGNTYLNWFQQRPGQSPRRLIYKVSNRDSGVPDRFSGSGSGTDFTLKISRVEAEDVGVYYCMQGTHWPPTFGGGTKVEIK
notes: Human IgG4 Fc (prefix H4H)

In one experiment the target is T1, human big-endothelin-1 (big-ET-1) (human).
T1 peptide: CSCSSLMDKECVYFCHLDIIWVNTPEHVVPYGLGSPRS
Nature of the experiment: cell-based or functional assay.
Turning to B1, the “Blocking IC50(M), 10 nM hBig-ET-1 + 3 nM hECE1 [Trial 1]; 293/ETaR/NFAT-Luc luciferase” value came out at 7.6e-09 M.
B2: the “Blocking IC50(M), 10 nM hBig-ET-1 + 3 nM hECE1 [Trial 1]; 293/ETaR/NFAT-Luc luciferase” value stood at 1.9e-09 M.
B3: the “Blocking IC50(M), 10 nM hBig-ET-1 + 3 nM hECE1 [Trial 1]; 293/ETaR/NFAT-Luc luciferase” value was determined as 1.5e-09 M.
In the case of B4, the “Blocking IC50(M), 10 nM hBig-ET-1 + 3 nM hECE1 [Trial 1]; 293/ETaR/NFAT-Luc luciferase” value was found to be 1.5e-09 M.
The same measure, in the same setting: for B5 the value was 4.3e-09 M.

A further experiment addresses T1, human big-endothelin-1 (big-ET-1). Nature of the experiment: SPR (Biacore T200), 37 C, mAb capture, peptide analyte; human IgG4 format (H4H), captured on mouse anti-human Fc surface; Table 3. Here is the method: (§1) Measurements were conducted on a T200 Biacore instrument (Biacore Life Sciences division of GE Healthcare, Piscataway, N.J.). […] Peptide binding was monitored for 3 min while dissociation of mAb-bound peptide was monitored for 4 min in HBST running buffer (0.01 M HEPES pH 7.4, 0.15 M NaCl, 3 mM EDTA, 0.005% v/v Surfactant P20). Kinetic association (kₐ) and dissociation (kd) rate constants were determined by processing and fitting the data to a 1:1 binding model using Scrubber 2.0 curve fitting software.
In general terms: SPR reads the build-up and loss of mass on a sensor chip optically.
As usually defined, the Kd is the concentration at which binding is half-saturated. Lower therefore signals a tighter complex. B6 came in with a Kd of 65.9 nM.

For a further experiment the target is unchanged. Nature of the experiment: cell-based or functional assay. The source holds these as a separate data set.
Take B7: the “Blocking IC50(M), 10 nM hBig-ET-1 + 3 nM hECE1; 293/ETaR/NFAT-Luc luciferase” value was found to be 1.8e-09 M.
As for B8, the “Blocking IC50(M), 10 nM hBig-ET-1 + 3 nM hECE1; 293/ETaR/NFAT-Luc luciferase” value stood at 6.8e-10 M.
On to B9, for which the “Blocking IC50(M), 10 nM hBig-ET-1 + 3 nM hECE1; 293/ETaR/NFAT-Luc luciferase” value was 1.5e-09 M.
Still for that read-out and setting: for B10 the value was above 1e-07 M; for B6, 1.33e-08 M.

A further experiment addresses T2, mouse big-ET-1 (mouse).
T2 peptide: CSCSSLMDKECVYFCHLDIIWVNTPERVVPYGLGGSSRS
Nature of the experiment: cell-based or functional assay.
As to B7, the “Blocking IC50(M), 20 nM mBig-ET-1 + 5 nM mECE1; 293/ETaR/NFAT-Luc luciferase” value is above 1e-07 M.
In the case of B8, the “Blocking IC50(M), 20 nM mBig-ET-1 + 5 nM mECE1; 293/ETaR/NFAT-Luc luciferase” value is above 1e-07 M.
Consider B9, for which the “Blocking IC50(M), 20 nM mBig-ET-1 + 5 nM mECE1; 293/ETaR/NFAT-Luc luciferase” value came to 1e-09 M.
For B10, the “Blocking IC50(M), 20 nM mBig-ET-1 + 5 nM mECE1; 293/ETaR/NFAT-Luc luciferase” value is above 1e-07 M.

Another experiment has as its target T1, human big-endothelin-1 (big-ET-1). Nature of the experiment: SPR (Biacore T200), 37 C, mAb capture, peptide analyte. Here is the method: as §1
B8 showed a Kd below 0.05 nM.
In the case of B10, the Kd is below 0.05 nM.
Take B5: the Kd is below 0.05 nM.

The target in another experiment is T3, small-ET-1 (endothelin-1) (human).
T3 construct: 21 amino acid peptide, same for mouse and human; also called human small-ET-1; EDN-1
T3 peptide: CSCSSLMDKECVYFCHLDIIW
Described as above. Here is the method:
as §1
B1: the binding result is listed as “no binding”.
Turning to B2, the binding result is “no binding”.
As for B7, the binding result is “no binding”.
The same measure, in the same setting: next, B9: “no binding”; B3: “no binding”.
Consider B4, for which the binding result is listed as “no binding”.
B10: the binding result is listed as “no binding”.
On to B5, for which the binding result was “no binding”.

Another experiment deals with T1, human big-endothelin-1 (big-ET-1). Nature of the experiment: SPR (Biacore T200), 37 C, mAb capture, peptide analyte; hybridoma mAb (H2M, mouse Fc), captured on rabbit anti-mouse surface; Table 2. Here is the method: as §1
B5 registered a Kd of at most 0.00853 nM.

For another experiment the target is unchanged. Nature of the experiment: SPR (Biacore T200), 37 C, mAb capture, peptide analyte. This is another data set of the same source. As to the method: as §1
As a reminder, the koff is the rate constant with which the complex falls apart. A high value points to a short-lived complex. What is called kon is a measure of how fast the partners come together. Higher therefore signals faster complex formation. Consider B1, for which the affinity, expressed as Kd, was 239 nM; the “T½” value came out at 0.1 min; the koff was 0.0898 s⁻¹; the kon was determined as 380000 M⁻¹ s⁻¹.
Consider B2, for which the affinity, expressed as Kd, was 19.1 nM; the “T½” value stood at 3 min; the koff amounted to 0.00399 s⁻¹; the kon is 209000 M⁻¹ s⁻¹.
For the molecule B7, the Kd stood at 1.02 nM, the “T½” value was found to be 10 min, the koff was 0.00116 s⁻¹ and the kon is 1.14e+06 M⁻¹ s⁻¹.
As for B8, binding was characterised by a dissociation constant (Kd) of 0.043 nM, the “T½” value is 133 min, the koff worked out at 8.68e-05 s⁻¹ and the kon was 2.02e+06 M⁻¹ s⁻¹.
As for B9, binding was put at a Kd of 13.2 nM, the “T½” value amounted to 0.5 min, the koff was 0.0239 s⁻¹ and the kon stood at 1.81e+06 M⁻¹ s⁻¹.
With B3, the Kd turned out to be 6.46 nM, the “T½” value was 7 min, the koff was 0.0016 s⁻¹ and the kon was 248000 M⁻¹ s⁻¹.
As for B4, binding was characterised by a dissociation constant (Kd) of 7.07 nM, the “T½” value was 7 min, the koff was 0.00169 s⁻¹ and the kon came to 239000 M⁻¹ s⁻¹.
B10: the Kd was at most 0.00634 nM, the “T½” value was found to be 11600 min, the koff was at most 1e-06 s⁻¹ and the kon is 158000 M⁻¹ s⁻¹.
In the case of B6, the “T½” value was 0.3 min, the koff was found to be 0.0399 s⁻¹ and the kon is 606000 M⁻¹ s⁻¹.
As to B5, the “T½” value is 11600 min, the koff is at most 1e-06 s⁻¹ and the kon came out at 117000 M⁻¹ s⁻¹.

For another experiment, the target named is T2, mouse big-ET-1. The experiment is described as above. As to the method: as §1
As for B1, the Kd worked out at 160 nM, the “T½” value came to 0.1 min, the koff was 0.135 s⁻¹ and the kon is 830000 M⁻¹ s⁻¹.
Consider B7, for which the Kd came out at 800 nM, the “T½” value is 5 min, the koff turned out to be 0.00236 s⁻¹ and the kon was 2900 M⁻¹ s⁻¹.
Regarding B8, binding was put at a Kd of 58 nM, the “T½” value came out at 25 min, the koff was 0.000456 s⁻¹ and the kon came out at 7900 M⁻¹ s⁻¹.
In the case of B9, the Kd was 13 nM, the “T½” value was determined as 0.3 min, the koff came to 0.0414 s⁻¹ and the association rate constant (kon) turned out to be 3.1e+06 M⁻¹ s⁻¹.
